Values of other authors, collected in patent US20240199736A1, “COMBINATION THERAPY INVOLVING ANTIBODIES AGAINST CLAUDIN 18.2 FOR TREATMENT OF CANCER” (ASTELLAS PHARMA INC., priority 2021, published 2024).

What was measured:
[1] = biological target: first extracellular domain (ECD1) of CLDN18.2 (Homo sapiens, UniProt P56856)
[2] = biological target: splice variant 1 of Claudin 18 (CLDN18.1) (Homo sapiens, UniProt P56856)

Recognition of ECD1 of CLDN18.2 [1]: high affinity and specificity
Binding to other claudin family members including CLDN18.1 [2]: does not bind
Substance: IMAB362: chimeric IgG1 antibody directed against CLDN18.2; heavy chain SEQ ID NO: 51, light chain SEQ ID NO: 24
